Measurements taken from patent US20160264684A1, “GLYCAN-INTERACTING COMPOUNDS AND METHODS OF USE” (SIAMAB THERAPEUTICS, INC., priority 2013, published 2016).

Experiments:
Format in all cases: binding
[1] = Glycan microarray analysis, Tn antigen or other glycans
Experimental: (§1) Optimized glycan arrays comprise 71 chemically synthesized and well-defined glycans, most of which comprise Neu5Ac and Neu5Gc glycan pairs.
(§2) 300 ml of epoxy blocking buffer is prepared by combining 15 ml of 2 M Tris buffer (pH 8) with 0.9 ml of 16.6 M ethanolamine and 284.1 ml of distilled water. The solution is filtered using a 0.2 μM nitrocellulose membrane. The epoxy buffer solution as well as 1 L of distilled water are pre-warmed to 50° C. Glass slides are arranged in a slide holder and quickly submerged in a staining tub with the warmed epoxy blocking buffer. Slides are incubated in the epoxy blocking buffer for 1 hour at 50° C. with periodic shaking to deactivate epoxy binding sites. Next, slides are rinsed and blocked with PBS with 1% OVA at 25° C. for one hour. Serum samples are diluted 1:1000 in PBS with 1% OVA and added to the glycan array for one hour at 25° C. After extensive washing, binding of polyclonal serum antibodies are detected by incubating glycan microarray slides with Cy3-conjugated anti-mouse IgG (Jackson Immunoresearch, West Grove, Pa.) for one hour. […]
(§3) 18D2 and 18C7 clones were expanded and binding properties of these hybridomas were determined by glycan microarray analysis according to Example 4. […] No binding to Tn antigen or other glycans was detected.

[2] = system: STn on bovine submaxillary mucin (BSM); experiment: Anti-STn BSM ELISA
Experimental: (§4) Anti-STn serum titer is determined using a murine anti-STn bovine submaxillary mucin (BSM) ELISA together with serum profiles observed by glycan microarray. 96-well plates are coated with 1 μg/well of BSM and incubated overnight at 4° C. O-acetylation of BSM antigen is removed by treating wells with 0.1 M sodium hydroxide. Specific binding to STn is determined by treatment of wells with sodium periodate. Periodate treatment destroys the C6 side chain of sialic acid; therefore antibodies raised against STn should not bind to periodate-treated wells. Wells are blocked with PBS 1% ovalbumin (OVA). Serum samples to be assayed are serially diluted in PBS 1% OVA. A commercially available mouse anti-STn monoclonal antibody, 3F1 (SBH Sciences, Natick, Mass.) is used as a positive control. This antibody is also serially diluted in PBS with 1% OVA. A pool of serum from naïve wild type mice is used for the preparation of negative control samples. Detection of anti-STn antibodies present in serum is determined using an HRP-conjugated polyclonal goat anti-mouse IgG antibody (Jackson Immunoresearch, West Grove, Pa.). The reaction is stopped by addition of sulfuric acid (1.6 M). Optical densities are measured at 490 nm using a Spectramax microplate reader (Molecular Devices, Sunnyvale, Calif.). The serum titer is obtained by comparison of OD values with a cutoff value calculated as two standard deviations above the mean of optical density values of the negative control. […]
Binding affinities of 18D2 and 18C7 to STn were compared to commercially available anti-STn antibodies using the BSM ELISA assay described in Example 2. […] Antibody binding was determined using HRP-conjugated polyclonal goat anti-mouse IgG antibody (Jackson Immunoresearch Laboratories, West Grove, Pa.). […] Optical densities were measured at 490 nm using a Spectramax microplate reader. […] The half maximal effective concentration (EC50) for each antibody was calculated using a non-linear regression analysis carried out on periodate subtracted data.

AcSTn-PAA ELISA = conditions: 200 ng/well PAA antigen; 1:5 dilutions from 1 μM
Experimental: as §4, with “A commercially available mouse anti-STn monoclonal antibody, 3F1 (SBH Sciences, Natick, Mass.) is used as a positive control. This antibody is also serially diluted in PBS with 1% OVA. A pool of serum from naïve wild type mice is used for the preparation of negative control samples.” left out, “The reaction is stopped by addition of sulfuric acid (1.6 M).” left out
18D2 and 18C7 antibodies were further characterized by ELISA comprising antigens other than BSM. […] Binding of anti-STn antibodies was detected using a goat anti-mouse IgG-HRP conjugated antibody (Jackson Immunoresearch Laboratories, West Grove, Pa.). […]

[3] = Glycan microarray analysis, AcSTn
Experimental: as §1, §2, §3

B1: 18D2: anti-STn monoclonal antibody from mouse #4436; IgG2b κ; heavy chain SEQ ID NO 1, light chains SEQ ID NO 2 and 3 (antibody, V domains shown)
VH: QVTLKESGPGILQPSQTLSLTCSFSGFSLSTSNMGIGWIRQPSGKGLEWLAHIWWHDDKYYNPSLKSRLTISKDISNNQVFLKITSVDTADTATYYCAQVPFYYGTSFDVWGTGTTVTVSS
VL 1: DIVMTQSPATLSVTPGDRVSLSCRASQSISDYLHWYQQKSHESPRLLIKYASQSISGIPSRFSGSGSGSDFTLSINSVEPEDVGVYYCQNGHSFPLTFGAGTKLELK
VL 2: QIVLTQSPAIMSASPGETVTMTCSASSSITYMHWYQQKPGTSPKRWIYDTSKLASGVPARFSGSGSGTSYSLTISSMEAEDAATYYCHQRSSYTFGGGTKLEIKR
[1]
  binding to Tn antigen or other glycans: No binding
[2]; BSM ELISA, sodium periodate treated wells
  binding to periodate-treated wells: did not bind
[2]; non-linear regression on periodate subtracted data, 7-point 1:5 dilution from 100 nM
  EC50: 6.3 nM
AcSTn-PAA ELISA
  EC50: 1.71 nM
[3]
  Glycan Array AcSTn: 50%
[3]; glycan microarray
  mean fluorescence intensity, AcSTn: about 16,000
